Test results published in article PMC5346706, “Anti-metastatic effect of the TM4SF5-specific peptide vaccine and humanized monoclonal antibody on colon cancer in a mouse lung metastasis model” (Oncotarget, 2016).

Legend:
[1] = molecular target: cyclic peptide hTM4SF5EC2-C (human); assay: SPR; biotinylated peptide immobilized on a streptavidin chip, increasing amounts of antibody applied; SR7500DC Reichert SPR system
[2] = molecular target: T1, Myc-tagged recombinant human TM4SF5 protein (Homo sapiens (Huh-7 cDNA), UniProt O14894); assay: western blotting; whole cell lysates of HEK 293F-EV and HEK 293F-TM4SF5 cells resolved on SDS-PAGE and probed with the antibody; conditions: one partner purified
T1 construct: human transmembrane 4 superfamily member 5 protein (TM4SF5); cDNA amplified from Huh-7 mRNA with the printed primers (5' primer holds the ATG); also called Myc-tagged hTM4SF5; hTM4SF5
T1 sequence (O14894 whole entry): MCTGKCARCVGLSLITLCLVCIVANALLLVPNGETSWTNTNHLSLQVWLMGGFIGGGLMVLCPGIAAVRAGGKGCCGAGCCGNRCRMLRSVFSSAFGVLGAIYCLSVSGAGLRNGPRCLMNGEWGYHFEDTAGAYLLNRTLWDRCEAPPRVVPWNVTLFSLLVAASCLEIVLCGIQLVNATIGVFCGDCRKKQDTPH

Kd [1]: < 0.48 nM
koff [1]: < 1e-05 s⁻¹
binding result [2]: binds
B1: mouse anti-TM4SF5 monoclonal antibody mEC2-C (antibody, V domains shown)
VH: QVQLEESGPGLVAPSQSLSIICTVSGFSLTSYGVTWVRQPPGKGLEWLGVIWSDGSTNYQSALISRLTISRDNSKSQAFLKLNSLQTDDTATYYCARPSNYYYFDYWGQGTTLTVSS
VL: DIVMTQSPSSLAVSAGERVTLSCKSSQSLFDRRTRKTYLAWYQQKPGQSPKLLISWASTRESGVPDRFTGSGSGTDFTLTISSVQAEDLAVYYCKQSYNLFTFGGGTKLEIK
notes: VH of mEC2-C (mouse VH2 subtype); mouse IgG3 heavy chain constant region; VL of mEC2-C (mouse Vk8 subtype); mouse kappa light chain constant region (cloned with kappa chain primers); Mouse IgG3, kappa; also called mEC2-2; source: hybridoma, purified from ascitic fluid (Protein A column)
